Changes are numbered by the printed parent chain.
B1: ET200-023 (scFv)
scFv: LPVLTQPPSVSVAPGKTARITCGGNNIGSKSVHWYQQKPGQAPVLVVYADSDRPSGIPERFSGSNSGNTATLTISRVEAGDEADYYCQVWDSSSYHNYVFGTGTKVTVLGSRGGGGSGGGGSGGGGSLEMAEVQLVQSGAEVKKPGASVKVSCKASGYTFTSYGISWVRQAPGQGLEWMGWISAYNGNTNYAQKLQGRVTMTTDTSTSTAYMELSSLRSEDTAMYYCARYWGFGVSDRWGQGTLVTVSSTSGQAGQHHHHHHGAYPYDVPDYAS
notes: screened as phage clone; entry is VL-linker-VH-His tag-HA tag
B2: ET200-019 (scFv)
scFv: NFMLTQPHSVSESPGKTVTISCTRSSGSIASNYVQWYQQRPGSAPTTVIYEDNQRPSGVPDRFSGSIDSSSNSASLTISGLKTEDEADYYCQSYDSSNSWVFGGGTKLTVLGSRGGGGSGGGGSGGGGSLEMAQVQLVQSGAEVKRPGSSVKVSCTASGGTFSSDAISWVRQAPGQGLEWMGGIIPMFGTANYAQKFQGRVTITADESTSTAYMELSSLRSEDTAVYYCAREGYYYPSAYLGSVLNDISSVYDEWGQGTLVTVSSTSGQAGQHHHHHHGAYPYDVPDYAS
notes: as for B1
B3: ET200-022 (scFv)
scFv: QSVVTQPPSVSAAPGQKVTISCSGSSSNIGNNYVSWYQQLPGTAPKLLIYDNNKRPSGIPDRFSGSKSGTSATLGITGLQTGDEADYYCGTWDSSLGAPYVFGTGTKVTVLGSRGGGGSGGGGSGGGGSLEMAEVQLVQSWGGSEQPGRSLRLSCAASGFTFDDYAMHWVRQAPGKGLEWVSGISWNSGSIGYADSVKGRFTISRDNAKNSLYLQMNSLRAEDTAMYYCARYRQVGSAYDSWGQGTLVTVSSTSGQAGQHHHHHHGAYPYDVPDYAS
notes: as for B1
B4: ET200-039 (scFv)
scFv: NFMLTQPHSVSESPGKTVTISCTRSSGSIASNYVQWYQQRPGSSPTTVIYEDNQRPSGVPDRFSGSIDSSSNSASLTISGLKTEDEADYYCQSYDSSNWVFGGGTKLTVLGSRGGGGSGGGGSGGGGSLEMAEVQLVQSGAEVKKPGSSVKVSCKASGGTFSSYAISWVRQAPGQGLEWMGGIIPIFGTANYAQKFQGRVTITADESTSTAYMELSSLRSEDTAVYYCARSNYYYNDYWGQGTLVTVSSTSGQAGQHHHHHHGAYPYDVPDYAS
notes: screened as phage clone; entry is VL-linker-VH-His tag-HA tag; also called ET200-39
B5: ET200-035 (scFv)
scFv: B4 scFv with S44A, S97T, E133Q, S231Y, Y235F
notes: as for B1
B6: ET200-026 (scFv)
scFv: B4 scFv with R24G, S44A, S231N, Y233H
notes: as for B1
B7: ET200-027 (scFv)
scFv: QSVLTQPPSVSGAPGQGVTIPCTGSSSNIGAGYDVHWYQQLPGTAPKLLIYGNNNRPSGVPDRFSGSRSGSSASLAITGLQAEDEADYYCQSYDSSLSDVVFGGGTKVTVLGSRGGGGSGGGGSGGGGSLEMAEVQLVQSGAEVKKPGATVKISCKVSGYTFTDYYMHWVQQAPGKGLEWMGLVDPEDGETIYAEKFQGRVTITADTSTDTAYMELSSLRSEDTAVYYCARYWSYSFDYLYMPEGNDWWGQGTLVTVSSTSGQAGQHHHHHHGAYPYDVPDYAS
notes: as for B1
B8: ET200-020 (scFv)
scFv: QSVVTQPPSVSAAPGQKVTISCSGSTSNIGNNDVSWYQQLPGTAPKLLIYDNNKRPSGIPDRFSGSKSGTSATLGITGLQTGDEADYYCGTWDSSVSASWVFGRGTKLTVLGSRGGGGSGGGGSGGGGSLEMAQVQLVQSGAEVKKPGASVKVSCKASGYTFTSYGISWVRQAPGQGLEWMGWISAYNGNTNYPQKLQGRVTMTTDPSTSTAYMELRSLRSDDTAVYYCARSMTSFDYWGQGTLVTVSSTSGQAGQHHHHHHGAYPYDVPDYAS
notes: as for B1
B9: ET200-021 (scFv)
scFv: QSVLTQPPSVSAAPGQKVTISCSGSNSNIGNNYVSWYQQLPGTAPKLLIYDNNKRPSGIPDRFSGSRSGTSATLGITGLQTGDEADYYCGTWNTTVTPGYVFGTGTKVTVLGSRGGGGSGGGGSGGGGSLEMAEVQLVQSGAEVKKPGASVKVSCKASGYTFTSYGISWVRQAPGQGLEWMGWISAYNGNTNYAQKLQGRVTMTTDTSTSTAYMELRSLRSDDTAMYYCARSVYDLDTWGQGTLVTVSSTSGQAGQHHHHHHGAYPYDVPDYAS
notes: as for B1

Target: T1, FcRL2, overexpressed on 3T3 cells (UniProt Q96LA5 20-508, limits assumed)
T1 construct: whole, on cells
T1 sequence (looked up): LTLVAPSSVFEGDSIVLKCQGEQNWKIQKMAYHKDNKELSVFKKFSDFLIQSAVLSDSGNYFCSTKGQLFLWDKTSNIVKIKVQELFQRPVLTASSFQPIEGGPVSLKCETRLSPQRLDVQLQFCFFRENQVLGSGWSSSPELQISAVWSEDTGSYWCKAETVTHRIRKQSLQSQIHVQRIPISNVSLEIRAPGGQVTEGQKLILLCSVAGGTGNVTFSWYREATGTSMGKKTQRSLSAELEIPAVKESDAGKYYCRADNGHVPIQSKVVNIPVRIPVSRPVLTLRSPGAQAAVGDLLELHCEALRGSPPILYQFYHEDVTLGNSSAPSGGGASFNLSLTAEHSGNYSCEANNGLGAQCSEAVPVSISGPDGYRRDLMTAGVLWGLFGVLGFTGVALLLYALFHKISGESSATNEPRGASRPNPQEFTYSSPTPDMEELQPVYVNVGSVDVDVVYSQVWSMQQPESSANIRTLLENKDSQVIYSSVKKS
Assay: phage clone on 3T3-FcRL2 cells

Binder	binding result
B1	no binding
B2	no binding
B3	no binding
B4	no binding
B5	no binding
B6	no binding
B7	no binding
B8	no binding
B9	no binding

Target: T2, FcRL3, overexpressed on 3T3 cells (UniProt Q96P31 18-734, limits assumed)
T2 construct: whole, on cells
T2 sequence (looked up): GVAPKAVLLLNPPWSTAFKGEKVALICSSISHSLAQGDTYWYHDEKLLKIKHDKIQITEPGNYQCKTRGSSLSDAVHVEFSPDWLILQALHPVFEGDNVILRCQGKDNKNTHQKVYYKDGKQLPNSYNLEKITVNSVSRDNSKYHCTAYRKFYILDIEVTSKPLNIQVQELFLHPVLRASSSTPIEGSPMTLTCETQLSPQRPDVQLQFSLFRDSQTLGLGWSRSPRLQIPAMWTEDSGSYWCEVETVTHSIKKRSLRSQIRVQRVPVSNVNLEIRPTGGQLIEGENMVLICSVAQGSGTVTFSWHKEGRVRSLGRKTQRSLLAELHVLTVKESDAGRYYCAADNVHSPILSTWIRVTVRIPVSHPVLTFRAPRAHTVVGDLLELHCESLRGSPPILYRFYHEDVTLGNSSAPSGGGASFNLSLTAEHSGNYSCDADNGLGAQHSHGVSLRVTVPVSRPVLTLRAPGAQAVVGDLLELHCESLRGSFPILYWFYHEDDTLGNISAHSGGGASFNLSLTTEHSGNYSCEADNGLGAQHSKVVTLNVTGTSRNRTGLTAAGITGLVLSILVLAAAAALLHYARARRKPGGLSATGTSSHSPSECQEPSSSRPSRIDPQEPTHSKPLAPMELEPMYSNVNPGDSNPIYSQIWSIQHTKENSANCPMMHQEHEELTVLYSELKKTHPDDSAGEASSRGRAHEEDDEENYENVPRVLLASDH
Assay: phage clone on 3T3-FcRL3 cells

Binder	binding result
B1	no binding
B2	no binding
B3	no binding
B4	no binding
B5	no binding
B6	no binding
B7	no binding
B8	no binding
B9	no binding

Target: T3, FcRL4, overexpressed on 3T3 cells (UniProt Q96PJ5 20-515, limits assumed)
T3 construct: whole, on cells
T3 sequence (looked up): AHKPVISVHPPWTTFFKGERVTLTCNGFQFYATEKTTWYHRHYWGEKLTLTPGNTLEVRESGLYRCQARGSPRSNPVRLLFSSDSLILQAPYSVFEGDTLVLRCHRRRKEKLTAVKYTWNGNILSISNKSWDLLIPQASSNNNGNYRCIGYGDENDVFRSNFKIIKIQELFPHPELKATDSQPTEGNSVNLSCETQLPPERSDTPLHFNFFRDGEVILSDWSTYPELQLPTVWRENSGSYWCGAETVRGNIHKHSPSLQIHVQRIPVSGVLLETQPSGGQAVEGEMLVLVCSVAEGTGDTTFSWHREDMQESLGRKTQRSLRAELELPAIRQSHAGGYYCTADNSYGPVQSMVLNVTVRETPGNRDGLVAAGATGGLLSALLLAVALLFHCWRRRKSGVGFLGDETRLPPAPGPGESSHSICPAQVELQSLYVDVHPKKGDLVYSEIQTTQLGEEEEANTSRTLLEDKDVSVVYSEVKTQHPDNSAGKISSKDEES
Assay: phage clone on 3T3-FcRL4 cells

Binder	binding result
B1	no binding
B2	no binding
B3	no binding
B4	no binding
B5	no binding
B6	no binding
B7	no binding
B8	no binding
B9	no binding

Target: T4, Fc Receptor-like 5 (FcRL5), full length, overexpressed on 3T3 or Raji cells (human, UniProt Q96RD9 16-977)
T4 construct: also called 3T3-FcRL5
T4 sequence: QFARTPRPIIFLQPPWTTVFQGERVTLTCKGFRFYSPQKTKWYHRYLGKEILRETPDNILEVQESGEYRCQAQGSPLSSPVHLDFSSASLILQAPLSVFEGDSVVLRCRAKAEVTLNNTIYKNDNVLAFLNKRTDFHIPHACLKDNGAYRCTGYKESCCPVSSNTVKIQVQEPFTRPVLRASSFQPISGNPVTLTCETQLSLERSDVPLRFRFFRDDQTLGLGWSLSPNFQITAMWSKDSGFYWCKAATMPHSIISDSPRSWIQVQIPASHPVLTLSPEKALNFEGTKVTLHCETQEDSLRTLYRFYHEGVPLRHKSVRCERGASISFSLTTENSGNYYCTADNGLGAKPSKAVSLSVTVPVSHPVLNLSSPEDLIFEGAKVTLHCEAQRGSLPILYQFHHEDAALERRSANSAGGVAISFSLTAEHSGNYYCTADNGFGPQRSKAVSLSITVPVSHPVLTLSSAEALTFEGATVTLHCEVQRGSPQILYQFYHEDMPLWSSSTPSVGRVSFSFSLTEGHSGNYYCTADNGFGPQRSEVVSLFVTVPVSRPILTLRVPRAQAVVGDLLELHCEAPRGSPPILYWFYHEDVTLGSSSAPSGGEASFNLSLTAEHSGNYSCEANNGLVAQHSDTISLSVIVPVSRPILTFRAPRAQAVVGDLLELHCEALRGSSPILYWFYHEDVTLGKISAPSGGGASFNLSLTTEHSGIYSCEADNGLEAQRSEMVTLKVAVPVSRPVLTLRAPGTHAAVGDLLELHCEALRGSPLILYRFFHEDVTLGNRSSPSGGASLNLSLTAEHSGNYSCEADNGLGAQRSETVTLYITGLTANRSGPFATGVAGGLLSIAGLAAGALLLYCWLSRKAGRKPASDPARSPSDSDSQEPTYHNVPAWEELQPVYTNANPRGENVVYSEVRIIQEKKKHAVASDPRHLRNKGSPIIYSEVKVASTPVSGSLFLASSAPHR
Assay: phage clone screening on cells
Method: Once selected, positive scFv clones are further tested for their binding to FcRL5 (e.g., human FcRL5) on live 3T3 cell surfaces by flow cytometry. Briefly, phage clones are incubated with 3T3 cells over-expressing FcRL5. The cells are washed and then incubated with a mouse anti-M13 coat protein mAb. Cells are washed again and labeled with a PE-horse anti-mouse Ig prior to flow cytometry.
Phage′ display against FcRL5 was performed to enrich for scFv phage clones that bind to FcRL5 specifically. Screening was carried out on FcRL5 overexpressing 3T3 cells or 3T3 cells expressing FcRL1, 2, 3, 4 or 6 as a negative control (FIG. 2).

Binder	binding result
B1	binds
B2	binds
B3	binds
B4	binds
B5	binds
B6	binds
B7	binds
B8	binds
B9	binds

Source: patent publication US20210388081A1 (Memorial Sloan Kettering, published 2021)
